Consider three molecules from patent US20200385685A1, “ROBUST DIFFERENTIATION OF HUMAN PLURIPOTENT STEM CELLS INTO ENDOTHELIAL CELLS USING TRANSCRIPTION FACTOR ETV2” (Children`s Medical Center Corporation, priority 2019, published 2020).

Where two headings read alike, the source gives them in different places.

In data set [1] the test system is h-iPSCs.
Description: S1-modETV2 protocol (4 days)—h-iPSCs were dissociated into single cells with TrypLE select and plated on Matrigel at a density of 60,000 cells/cm^2 in mTeSR1 medium with 10 μM Y27632. After 24 h, the medium was changed to S1 medium consisting of basal medium supplemented with 6 μM CHIR99021. Basal medium was prepared by adding 1× GlutaMax supplement and 60 μg/mL L-Ascorbic acid into Advanced DMEM/F12. After 48 h, h-MPCs were dissociated into single cells and then transfected with modRNA(ETV2) by either electroporation or lipofection. For electroporation, 2 million h-MPCs were resuspended in 100 μL buffer mixed with 1 μg modETV2. Electroporated cells were then seeded on a 60-mm Matrigel-coated dish in modETV2 medium consisting of basal medium supplemented with 50 ng/mL VEGF-A, 50 ng/mL FGF-2, 10 ng/mL EGF and 10 μM SB431542. For lipofection, 3 μL lipofectamine RNAiMax (ThermoFisher, Cat No. 13778030) were diluted in 50 μL Opti-MEM (ThermoFisher, Cat No. 31985062) and 0.6 μg modRNA(ETV2) diluted in another 50 μL Opti-MEM. Lipofectamine and modRNA(ETV2) were then mixed and incubated for 15 min at room temperature. The lipid/RNA complex was added to 0.5 million h-MPCs in modETV2 medium and transfected cells were then seeded on a 35-mm Matrigel-coated dish. Upon transfection (electroporation or lipofection), cells were cultured for another 48 h before purification. Medium was changed every day throughout this protocol (Table 2). modRNA encoding GFP (TriLink, Cat No. L-7601) at a concentration of 0.2 μg per million h-MPCs served as negative control.
S1-S2, method #1 (4 days)—h-iPSCs were dissociated into single cells with TrypLE select and plated on Matrigel at a density of 60,000 cells/cm^2 in mTeSR1 medium with 10 μM Y27632. […]
Cells were dissociated into single-cell suspensions using TrypLE and washed with PBS supplemented with 100BSA and 0.2 mM EDTA. In indicated experiments, cells were stained with flow cytometry antibodies and analyzed using a Guava easyCyte 6HT/2L flow cytometer (Millipore Corporation, Billerica, Mass.) and FlowJo software (Tree Star Inc., Ashland, Oreg.). […]
The test system of data set [2] is h-MPCs. Description: Conversion of h-MPCs into h-iECs after transfection with modRNA(ETV2), flow cytometry. Type of data set: cell-based, human. Particulars: for percentage of h-iECs at 96 h: above 0.5 μg of modRNA(ETV2) per 10^6 h-iPSCs. The source says: Antibody information is detailed in Table 8.
For orientation: A flow cytometer gives signals particle by particle.

Data set [3] has as its system h-MPCs. Description: Immunofluorescence staining for ETV2 after transfection with modRNA. It is filed as cell-based, human. As to conditions: 6 h after transfection of h-MPCs. On the procedure: Cells were seeded in 8-well LAB-TEK chamber slides at a density of 60,000 cell s/cm^2. After confluency, cells were fixed in 4% paraformaldehyde (PFA), permeabilized with 0.1% Triton X-100 in PBS, and then blocked for 30 min in 5% horse serum (Vector, Cat No. 5-2000). Subsequently, cells were incubated with primary antibodies for 30 min at room temperature (RT). Cells were washed 3 times with PBS and then incubated with secondary antibodies for 30 min at RT. Cells were washed 3 times with PBS and stained with 0.5 μg/mL DAPI for 5 min. Slides were mounted with DAKO fluorescence mounting medium (Agilent, Cat No. 5302380-2). Antibody information is detailed in Table 8, above.

In the case of `Cc1cc(C)c(/C=C2\C(=O)Nc3ccccc32)[nH]1` [SU5416], the “h-iECs at 96 h” value in data set [1] (S1-S2 protocol) is less than 2%; in data set [1] (S1-modETV2 protocol) it was 94%.

VEGF: the “proportion of ETV2+ cells and subsequent conversion to CD31+ h-iECs” value in data set [1] (S1-S2 protocol, beyond 50 ng/mL) was “failed to further increase”.

B1: modRNA(ETV2): Chemically modified mRNA encoding ETV2, transcript variant 1 (NM_014209.3), SEQ ID NO: 1, generated by TriLink BioTechnologies (nucleic acid, listed as Homo sapiens)
chain: ATGGACCTGTGGAACTGGGATGAGGCATCCCCACAGGAAGTGCCTCCAGGGAACAAGCTGGCAGGGCTTGAAGGAGCCAAATTAGGCTTCTGTTTCCCTGATCTGGCACTCCAAGGGGACACGCCGACAGCGACAGCAGAGACATGCTGGAAAGGTACAAGCTCATCCCTGGCAAGCTTCCCACAGCTGGACTGGGGCTCCGCGTTACTGCACCCAGAAGTTCCATGGGGGGCGGAGCCCGACTCTCAGGCTCTTCCGTGGTCCGGGGACTGGACAGACATGGCGTGCACAGCCTGGGACTCTTGGAGCGGCGCCTCGCAGACCCTGGGCCCCGCCCCTCTCGGCCCGGGCCCCATCCCCGCCGCCGGCTCCGAAGGCGCCGCGGGCCAGAACTGCGTCCCCGTGGCGGGAGAGGCCACCTCGTGGTCGCGCGCCCAGGCCGCCGGGAGCAACACCAGCTGGGACTGTTCTGTGGGGCCCGACGGCGATACCTACTGGGGCAGTGGCCTGGGCGGGGAGCCGCGCACGGACTGTACCATTTCGTGGGGCGGGCCCGCGGGCCCGGACTGTACCACCTCCTGGAACCCGGGGCTGCATGCGGGTGGCACCACCTCTTTGAAGCGGTACCAGAGCTCAGCTCTCACCGTTTGCTCCGAACCGAGCCCGCAGTCGGACCGTGCCAGTTTGGCTCGATGCCCCAAAACTAACCACCGAGGTCCCATTCAGCTGTGGCAGTTCCTCCTGGAGCTGCTCCACGACGGGGCGCGTAGCAGCTGCATCCGTTGGACTGGCAACAGCCGCGAGTTCCAGCTGTGCGACCCCAAAGAGGTGGCTCGGCTGTGGGGCGAGCGCAAGAGAAAGCCGGGCATGAATTACGAGAAGCTGAGCCGGGGCCTTCGCTACTACTATCGCCGCGACATCGTGCGCAAGAGCGGGGGGCGAAAGTACACGTACCGCTTCGGGGGCCGCGTGCCCAGCCTAGCCTATCCGGACTGTGCGGGAGGCGGACGGGGAGCAGAGACACAATAA
modifications: chemically modified nucleosides
With B1, the “cells that were endothelial (VE-Cadherin+/CD31+ cells)” value in data set [2] (48 h after transfection of h-MPCs) was 95%. Also, the “percentage of h-iECs at 96 h” value in data set [2] (electroporation) is given as 95%; in data set [2] (lipofection), 75%. The “cells expressing ETV2” value in data set [3] is listed as greater than 85%.
